Source: paper PMC9890132 (Molecular Cancer Therapeutics, 2022)

Experiments:
[1] = molecular target: cynomolgus monkey FolRα overexpressed on CHO cells (Macaca fascicularis, UniProt A0A2K5U044); assay: flow cytometry on cells
[2] = molecular target: Recombinantly-expressed FolRα extracellular domain (Acro Biosystems) (Homo sapiens, UniProt P15328); assay: SPR

B1: anti-FolRα antibody SP8166 (antibody, V domains shown)
VH: EVQLVESGGGLVQPGGSLRLSCAASGFNIRTQSIHWVRQAPGKGLEWIGDIFPIDGITDYADSVKGRFTISADTSKNTAYLQMNSLRAEDTAVYYCARGSWSWPSGMDYYLDYWGQGTLVTVSS
VL: not shown
binding result [1]: binds
Kd [2]: 2.3 nM
